This is an account of results in US7615380B2, “Methods for modulating an immune response by modulating KRC activity” (President and Fellows of Harvard College, priority 2001, dated 2009).

In one data set the test system is AP-1. The experiment in a line: AP-1 luciferase reporter in Jurkat cells, KRC-enhanced transactivation after PMA plus ionomycin. In kind it is cell-based, human. The conditions noted are these: pretreated with Rottlerin (10 μM), PMA plus ionomycin 6 hours. The method, then: FIG. 20(A) Jurkat cells were transiently transfected with AP-1 Luciferase reporter along with KRC and RasN17 DN vectors. 24 hours later cells were pretreated with Rottlerin (10 μM) and stimulated for 6 hours with PMA plus ionomycin. Luciferase activity was measured as above. FIG. 20(B) Jurkat cells were transfected with a GAL4 Luciferase reporter along with a GAL4 DNA binding domain, GAL4-ATF2, or GAL4-ELK1 with or without KRC. 24 hours later, cells were stimulated with PMA plus ionomycin and analyzed for Luciferase activity as above. FIG. 20(C) Jurkat cells were transiently transfected with FLAG-JNK2, and either Vector, KRC, or MKK7. 48 hours later, cells were stimulated with PMA plus ionomycin for 6 hours and JNK activity was determined by immunoprecipitation/kinase assay. Equal amounts of FLAG-Jnk2 protein were immunoprecipitated, as judged by anti-FLAG western blot (lower panel).
For each transfection, 5×10^6 Jurkat cells were incubated with either IL2-Luc, NFAT/AP1-Luc or AP1-Luc reporter DNA together with pEF vector or pEF-KRC and CMV-βGAL as normalization control in 0.4 ml of RPMI and transfected by electroporation (260 v, 975 uF). Transfected cells were cultured at 37° C. for 20 h in RPMI 1640 medium (Gibco BRL) supplemented with 10% fetal bovine serum. Transfected cells were stimulated with PMA (50 ng/ml) and ionomycin (2 uM) for 6 hours prior to luciferase (Promega) and β-galactosidase assays (Galacton-PLUS substrate system, TROPIX, Inc).
For orientation: In a reporter assay the amount or activity of a reporter protein is the signal.

For a further data set, the system named is NFκB. The data set is described as follows: NFκB luciferase reporter transfection assay in 293T cells. In kind it is cell-based, human. The protocol:
FIGS. 2(A)-2(C) depicts KRC preventing TRAF-dependent NFkB activation. Inhibition of TRAF2 (FIG. 2(A)), TRAF5 (FIG. 2(B)) and TRAF6 (FIG. 2(C)) mediated activation of NFkB by ectopically expressed KRC. 293 T cells (3×10^5 ) were transfected with 25 ng of NFkB luciferase reporter plasmid, 50 ng of CMVβGal and 1 μg of each indicated plasmid and 24 hours post transfection cells were harvested. Data from at least five experiments normalized for β galactosidase activity are shown. Vec refers to the empty MYC vector without the addition of TRAFs.
293 T cells (3×10^5 ) were transfected with 25 ng of NFκB luciferase reporter plasmid, 50 ng of CMVβGal and 1 μg of each indicated plasmid and 24 hours post transfection cells were stimulated for 4 hours with 10 ng/ml of TNFα. (A) KRC and KRC tr (B) dominant negative and antisense KRC (C) antisense KRC in the presence of exogenous TRAF2. Data from at least five experiments normalized for β galactosidase activity are shown.
HEK293 cells ([…] per well) were seeded in 6 well plates, and 12 h later cells were transfected with EFECTENE™ (Qiagen) with 25 ng of a 2XNFκB-luciferase (Luc) reporter gene plasmid and 0.5 μg of the indicated TRAF and KRC expression vectors. Total amounts of transfected DNA were kept constant by supplementing with control empty expression vector plasmids as needed. Cell extracts were prepared 24 h after transfection, and reporter gene activity was determined via the luciferase assay system (PROMEGA). PRSV-βGal vector (50 ng) was used to normalize for transfection efficiency by measuring β galactosidase activity using the Galacton-PLUS substrate system (TROPIX, Inc.). Whenever indicated, the cells were treated for 4 hours with TNFα or IL-1 (10 ng/ml). To generate stable transfectants, EFECTENE™ mediated transfection of the RAW cell line was performed and clones were selected and maintained in complete medium supplemented with G418 (2 mg/ml).

The target in another data set is T1, c-Jun (Homo sapiens, UniProt P05412).
T1 construct: expressed in transfected cells; host or cells: 293T cells (co-IP); in vitro translated, 35S-labelled c-Jun in the pull-down
The data set is described as follows: Coimmunoprecipitation / in vitro pull down with c-Jun. In kind it is binding. The method, then: FIG. 21(A) 293T cells were transfected with c-Jun and myc-KRCtr. 48 hours later, lysates were immunoprecipitated with anti-Myc antibody. Immunoprecipitates were probed by western blotting with anti-c-Jun antibody. FIG. 21(B) (left panel) 293T cells were cotransfected with c-Jun and full length His-KRC. 48 hours later, lysates were immunoprecipitated with anti-His antibody (DE8 Omniprobe) and precipitates were probed by western blotting with anti-c-Jun antibody. (right panel) In vitro translated and S35-labelled c-Jun and His-KRCtr were mixed and immunoprecipitated with anti-His antibody. Recovered c-Jun protein was visualized by autoradiography. FIG. 21(C) Jurkat or EL4 T cells were stimulated with PMA plus ionomycin for 45 minutes. Lysates were immunoprecipitated with anti-c-Jun antibody, and immunoprecipitates were probed with specific anti-KRC rabbit antisera. FIG. 21(D) (upper panel) 293T cells were transfected with AP-1 Luciferase along with c-Jun, c-Fos, and KRC. 24 hours later, Luciferase activity was determined as above. (lower panel) 293T cells were transfected with GAL4 Luciferase along with GAL4, GAL4-c-Jun 1-224, or GAL4-c-Fos 208-313. 24 hours later, luciferase activity was determined as above. […]

The next data set relates to NIH 3T3 cells. The data set is described as follows: β-galactosidase cotransfection apoptosis assay in 3T3 cells. The conditions noted are these: TNFα 20 ng/ml. It counts as cell-based. The protocol: 3T3 cells were cotransfected with CMV lacZ vector (300 ng per plate) and either empty expression vector or the expression vectors indicated (2 μg of each). Half of the transfected cultured cells were treated with TNFα (20 ng/ml) at 12 hours after the transfection and the other half left untreated. All the cells were fixed and stained at 36 hours after the transfection. The number of blue cells in each transfection was determined by counting six different fields. A representative experiment of three performed is presented.
β-galactosidase cotransfection assays for determination of cell death were performed as described (Hsu, et al.). Transfected NIH 3T3 cells were washed with PBS, fixed in PBS containing 3% paraformaldehyde for 10 min at 4° C., and washed with PBS. Fixed cells were stained overnight with XGal. The number of blue-stained cells was determined microscopically. The average number from one representative experiment of three is shown.

For another data set, the system named is JNK. The data set is described as follows: JNK in vitro kinase assay after transfection of 293 cells. In kind it is cell-based, human. The conditions noted are these: 293 cells cotransfected with TRAF2, 24 hours. The method, then:
Inhibition of TRAF2 (A) and TNFα (B, C) mediated JNK/SAPK activation by ectopic expression of KRC. (A) 293 T cells were transfected with 400 ng of TRAF2 and 2 μg of the indicated expression vector. Twenty-four hours after the transfection, the cells were harvested and lysed, and the endogenous JNK was precipitated with 5 μg of GST-cJUN (1-79) for 4 hours. JNK activity was determined by using GST-cJUN (1-79) as a substrate. (B,C) 293 T cells were cotransfected with vectors encoding HA-tagged JNK2 (500ng) and the indicated expression vector (2 μg). Twenty-four hours after the transfection cells were stimulated for 10 min with 10 ng/ml of TNFα and cells harvested at varying time points. JNK activity was assayed with GST-cJUN (1-79) as substrate.
Anti-HA or anti-FLAG immunoprecipitates were used for immune complex kinase assays that were performed at 30° C. for 30 min with 1 μg of substrate, 10 μCi of γ^32 P ATP, and 10 μM ATP in 30 μl of kinase buffer (20 mM HEPES, pH 7.4, 10 mM MgCl2, 25 mM β-glycerophosphate, 50 μm NA3VO4, and 50 μm DTT). The substrate was GST-c-JUN.

Read-outs that look alike come from different tables or passages of the source.

T1 sequence (P05412 whole entry): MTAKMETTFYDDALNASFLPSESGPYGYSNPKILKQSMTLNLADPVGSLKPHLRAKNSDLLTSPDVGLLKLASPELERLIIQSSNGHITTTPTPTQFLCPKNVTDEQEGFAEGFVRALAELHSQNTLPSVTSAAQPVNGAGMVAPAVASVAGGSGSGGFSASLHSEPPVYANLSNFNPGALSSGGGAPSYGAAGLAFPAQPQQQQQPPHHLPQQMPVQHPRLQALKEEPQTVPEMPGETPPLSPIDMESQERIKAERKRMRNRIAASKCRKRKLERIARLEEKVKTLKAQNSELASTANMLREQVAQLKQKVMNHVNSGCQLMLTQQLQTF

As to `CC(=O)c1c(O)c(C)c(O)c(Cc2c(O)c3c(c(C(=O)/C=C/c4ccccc4)c2O)OC(C)(C)C=C3)c1O` [Rottlerin], the “KRC transactivation of the AP-1 reporter” value with AP-1 is “blocked”; in the data set on AP-1 (listed as rottlerin) it was “abolished the ability of KRC to enhance AP-1 transactivation”.
With RasN17: dominant negative Ras, the “KRC transactivation of the AP-1 reporter” value in the data set with AP-1 is “abolished the ability of KRC to enhance AP-1 transactivation”.

B1: KRC tr: truncated KRC, amino acid residues 204 to 1055 of SEQ ID NO:2 (protein, listed as Homo sapiens)
chain: PSVLQKHIRSHTGERPYPCGPCGFSFKTKSNLYKHRKSHAHRIKAGLASGMGGEMYPHGLEMERIPGEEFEEPTEGESTDSEEETSATSGHPAELSPRPKQPLLSSGLYSSGSHSSSHERCSLSQSSTAQSLEDPPPFVEPSSEHPLSHKPEDTHTIKQKLALRLSERKKVIDEQAFLSPGSKGSTESGYFSRSESAEQQVSPPNTNAKSYAEIIFGKCGRIGQRTAMLTATSTQPLLPLSTEDKPSLVPLSVPRTQVIEHITKLITINEAVVDTSEIDSVKPRRSSLSRRSSMESPKSSLYREPLSSHSEKTKPEQSLLSLQHPPSTAPPVPLLRSHSMPSAACTISTPHHPFRGSYSFDDHITDSEALSRSSHVFTSHPRMLKPQPAIELPLGGEYSSEEPGPSSKDTASKPSDEVEPKESELTKKTKKGLKTKGVIYECNICGARYKKRDNYEAHKKYYCSELQIAKPISAGTHTSPEAEKSQIEHEPWSQMMHYKLGTTLELTPLRKRRKEKSLGDEEEPPAFESTKSQFGSPGPSDAARNLPLESTKSPAEPSKSVPSLEGPTGFQPRTPKPGSGSESGKERRTTSKEISVIQHTSSFEKSDSLEQPSGLEGEDKPLAQFPSPPPAPHGRSAHSLQPKLVRQPNIQVPEILVTEEPDRPDTEPEPPPKEPEKTEEFQWPQRSQTLAQLPAEKAPPKKKRLRLAEMAQSSGESSFESSVPLSRSPSQESNVSLSGSSRSASFERDDHGKAEAPDPSSDMRPKPLGTHMLTVPSHHPHAREMRRSASEQSPNVSHSAHMTETRSKSFDYGSLSLTGPSAPAPVAPPAGEAPPERRKCFLVRSPSLSRPP
As to B1, the “NFκB activation induced by TRAF5 and TRAF6” value in the data set with NFκB (293T cells) is listed as “substantially but not completely affected”. The NFkB-dependent transactivation entry in the data set on NFκB (293T cells, absence of exogenous TRAFs) is listed as “blocked NFkB-dependent transactivation”. For the same molecule, the “TRAF2-induced NFκB activation” value in the data set on NFκB (293T cells, exogenous TRAF2) was “blocked TRAF2-induced NFκB activation”. Also, the “TNFα-induced NFκB activation” value with NFκB (293 cells, 10 ng/ml TNFα 4 hours) is “strongly inhibited TNFα-induced NFκB activation”. The entries for the “physical association with c-Jun” value with c-Jun and with c-Jun (listed as KRCtr) were “physically associated with c-Jun” and “interacted with c-Jun”, respectively. Besides, the “TNFα-induced apoptosis (TNF mediated cytotoxicity)” value in the data set with NIH 3T3 cells is “The same effect was observed”. Moreover, the “TRAF2-dependent JNK activation” value with JNK was “blocked TRAF2-dependent JNK activation”.
